# Laboratory results published in patent publication US20110014125.
# How the values were obtained:
# [1] = system: T1, oligopeptide CGGGSGRSAGGGC (SEQ ID NO: 35) tethering Zn-TCPP and TCPP porphyrins to a stealth-protected Fe/Fe3O4 nanoparticle
# T1 sequence: CGGGSGRSAGGGC
# [2] = system: Fe/Fe3O4 nanoparticle-TCPP assemblies featuring the urokinase cleavage sequence
# [3] = system: T2, oligopeptide CGGGSGRSAGGGC (SEQ ID NO: 35) linking two gold nanoparticles (Au-Au nanoparticle assembly)
# T2 sequence: CGGGSGRSAGGGC
# [4] = system: T3, oligopeptide SRSRSRSRSRSGRSAGGGC (SEQ ID NO: 18) as spacer between a pyrene fluorophore and a coumarin acceptor
# T3 sequence: SRSRSRSRSRSGRSAGGGC
substance,measurement,setting,value
urokinase,fluorescence band at 607 nm over 0-6 minutes,[1],distinct decrease of the fluorescence band at λ1=607 nm
same,cleavage rate (rate constant k from TCPP luminescence at 656 nm vs. time),[2],the cleavage rate increases by 3-5 times per order of magnitude of increase in urokinase concentration
same,"maximum of the gold plasmon absorption (UV/Vis absorption, after 180 seconds with urokinase)",[3],shift from 523 nm to 517 nm within 180 seconds
same,"maximum of the gold plasmon absorption (UV/Vis absorption, before cleavage)",[3],shift from 523 nm to 517 nm within 180 seconds
same,"coumarin emission (FRET from pyrene, excitation 280 nm) over 0-15 minutes",[4],The coumarin emission decreases with time
